Experiment: yeast display, Sf9 membrane polyspecificity reagent, FACS + sequencing; frameworks hold sequencing errors
Outline: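 In a synthetic yeast display library (Saccharomyces cerevisiae BJ5465), nanobody expression was induced with galactose for 36–48 hours. FACS gates were set low and high (top ~1%) using anti-HA fluorescence for expression and streptavidin fluorescence for binding of the Sf9 membrane reagent. Each polyreactivity label is drawn from the gate of origin.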

Sequence	polyreactivity (PSR sort gate)
QVQLVESGGGLVQAGGSLRLSCAASGSTFYANLMGWYRQAPGKEWEFVAAIDGSGGRTYYADSVKGRFTISRDNAKNTVYLQMNSLKPEVTAVYYCAKKRIVPVIQFGRDYNYWGQGKQVTVSS	high polyreactivity
QVQLVESGGGLVQAGGSLRLSCAASGSTFYANVMGWYRQAPGKERELVAAIRWSGSSTYYADSVKGRFTISRDNAKNTVYLQMNSLKPEDTAVYYCNARYDFSYDYWGQGTQVTVSS	low polyreactivity
QVQLVESGGGLVQAGGSLRLSCAASGSTFYASVMGWYRQAPGKERELVAGITWYGGSTYYADSVKGRFTISRDNAKNTVYLQMNSLKPEDTAVYYCAADYYNTYGYDYCGQGTQVTVSS	low polyreactivity
QVQLVESGGGLVQAGGSLRLSCAASGSTFYAYAMGWYRQAPGKERELVAAISGSGGRTYYADSVKGRFTISRDNAKNTVYLQMNSLKPEDTAVYYCAASLTSRLPDPPRYYWGQGTQVTVSS	high polyreactivity
QVQLVESGGGLVQAGGSLRLSCAASGSTFYAYAMGWYRQAPGKERELVAAISSDGSTNYADSVKGRFTISRDNAKNTVYLQMNSLKPEDTAVYYCAADDNGAWVRMDYWGQGTQVTVSS	low polyreactivity
QVQLVESGGGLVQAGGSLRLSCAASGSTFYAYAMGWYRQAPGKERELVAGISKRVGRTYYADSVKGRFTISRDNAKNTVYLQMNSLKPEDTAVYYCNADVYAYPATWLDYWGQGTQVTVSS	high polyreactivity
QVQLVESGGGLVQAGGSLRLSCAASGSTFYAYTMGWYRQAPGKEREFVAAISKSGGSTYYADSVKGRFTISRDNAKNTVYIQMNSLKPEDTAVYYCAARVYYRYDWGQGTQVTVSS	high polyreactivity
QVQLVESGGGLVQAGGSLRLSCAASGSTFYDNTMGSYRQAPGKERELVAAITGTGGNTYYADSVKGRFTISRDNAKNTVYLQMNSLKPEDTAVYYCNRVPVYYYRYGYWGQGTQVTVSS	low polyreactivity
QVQLVESGGGLVQAGGSLRLSCAASGSTFYDYAMGWYRQAPGKERELVAAISQSGGSTYYADSVKGRFTISRDNAKNTVYLQMNSLKPEDTAVYYCAADSGYSLYDYWGQCTQVTVSS	low polyreactivity
QVQLVESGGGLVQAGGSLRLSCAASGSTFYDYAMGWYRQAPGTEREFVAAISGSAGSTYYADSVKGRFTISRDNAKNTVYLQMNSLKPEDTAVYYCATDYGWEDYNYWGQGTQVTVSS	low polyreactivity
QVQLVESGGGLVQAGGSLRLSCAASGSTFYDYAMGWYRQAPWKERELVAAITSGGSTYADSVKGRFTISRYNAKNTVYLQMNSLKPEDTAVYYCNKDFVVEYWWHHVYVYYYLGDYWGQGTQVTVSS	low polyreactivity
QVQLVESGGGLVQAGGSLRLSCAASGSTFYENTMGWYRQATGKERELVAAISFRGGSTYYADSVKGRFTISRDNAKNTVYLQMNSLKPEDTAVYYCNADDSPVPSIRFDYWGQGTQVTVSS	low polyreactivity
QVQLVESGGGLVQAGGSLRLSCAASGSTFYEYAMGWYRQAPGKERELVATINWS	low polyreactivity
QVQLVESGGGLVQAGGSLRLSCAASGSTFYFNAMGWSRQAPGKERELVAAIDWSGGSTYYADSVKGRFTISRDNAKNTVYLQMNSLKPEDTAVYYCITVPNRARISTLYGYDYWGQGTQVTVSS	low polyreactivity
QVQLVESGGGLVQAGGSLRLSCAASGSTFYFNAMGWYRQAPGKERELVADINYSGTSTYYADSVKGRFTISRDNAKNTVYLQMTSLKPEDTAVYYCAKSLPSSNTSTSYDYWGQGTQVTVSS	low polyreactivity
QVQLVESGGGLVQAGGSLRLSCAASGSTFYFNAMGWYRQAPGKERELVAGIRYSGSSTYYADSVKGRFTISRDNAKNTVYLQMNSLKPEYTAVYYCAAERWWYTVRGYGYWGQGTQVTVSS	high polyreactivity
QVQLVESGGGLVQAGGSLRLSCAASGSTFYFNAMGWYRQAPGKERELVAGISSGGSTYYADSVKGRFTISRDNAKNTVYLQMNSLKPEDTAVYYCAADSDTFYYTGYDYDYWGQGTQVTVSS	low polyreactivity
QVQLVESGGGLVQAGGSLRLSCAASGSTFYGNAMGWYRQAPGKERELVAAISRGGGSTYYADSVKGRFTISRDNAKNTVYLQMNSLKPEDTAVYYCAATRYLHPWYYPYYYWGQGTQVTVSS	low polyreactivity
QVQLVESGGGLVQAGGSLRLSCAASGSTFYGNAMGWYRQAPGKERELVAAITWGDASTYYADSVKGRFTISRDNAKNTDYLQMNSLKPEDTAVYYCAVDESYGSSSDMDYWGQGTQVTVSS	low polyreactivity
QVQLVESGGGLVQAGGSLRLSCAASGSTFYGNAMVWYIQAPGKERELVAAIRWRGGRTYYADSVKGRFTNSRDNAKYTVYLKLNSLIPEDTAVYDCNALPGVSDTQYDRVGYWGQGTQVTVSS	high polyreactivity
QVQLVESGGGLVQAGGSLRLSCAASGSTFYGNAMVWYRQAPGKERELVARITTSGSTYYADSVKGRFTISRDNAKNTVYLQMNSLKPEDTAVYYCAKRGYGPSIRYYYWGHGTQVTVSS	high polyreactivity
QVQLVESGGGLVQAGGSLRLSCAASGSTFYGYAMGWYRQAPGKERELVAAISGGGSTNYADSVKGRFTISRDNAKNTVYLQMNSLKPEDTAVYYCAARTTVYRRYGRNYWGQGTQVTVSS	high polyreactivity

Sequence	polyreactivity (PSR sort gate)
QVQLVESGGGLVQAGGSLRLSCAASGSTFYGYAMGWYRQAPGKERELVAAISSGGRTKYADSVKGRFTISRDTAKNTVYLQMNSLKPEDTAVYYCYVSYLVYRWKFGWSMDYWGQGTQVTLSS	low polyreactivity
QVQLVESGGGLVQAGGSLRLSCAASGSTFYGYAMGWYRQAPGKERELVAAISVRAGITYYADSVKGRFTISRDNAKNTVYLQMNSLKPEDTAVYYCAKDHWTTSYDEGDYWGQGTQVTVSS	low polyreactivity
QVQLVESGGGLVQAGGSLRLSCAASGSTFYGYAMGWYRQAPGKERELVAAISWSGASTYYADSVKGRFTISRDNAKNTVYLQMNSLKPDDTAVYYCNKRYRGYFNWPHGYWGQGTQVTVSS	high polyreactivity
QVQLVESGGGLVQAGGSLRLSCAASGSTFYGYAQGWYRQAPRKERELVAAISRTGTTNYADSVKGRFTISRDNAKNTVYLQMNSLKPEVTAVYYCNVRGYEVWYPLAYDYWGQGTQVTVSS	high polyreactivity
QVQLVESGGGLVQAGGSLRLSCAASGSTFYGYTMGWYRQAPGKERELVAAITSGDSTYYADSVKGRFTISRDNAKNTVYLQINSLKPEDTAVYYCATDWDVEYYWTEYYYWGQGTQVTVSS	high polyreactivity
QVQLVESGGGLVQAGGSLRLSCAASGSTFYHNAMGWYRQAPGKERELVAAITTSGGSTYYADSVKGRFTISRDNAKNTVYLQMNSLKPEDTAVYYCNVYRPYLAPYDYWGQGTQVTVSS	low polyreactivity
QVQLVESGGGLVQAGGSLRLSCAASGSTFYHNVMGWYLQAPGKERELVASIDTGDSTNYADSVKGRFTISRDNAKNTVYLQMNSLKPEDTAVYYCNADSYPALNKRGYDYWGQGTQVTVSS	low polyreactivity
QVQLVESGGGLVQAGGSLRLSCAASGSTFYINAMGWYRQAPGKERELVAAISWGGGSTYYADSVKGRFTISRDNAKNTVYLQMNSLKPEDTAVYYCAKLKGTQPNRYDYWGQGTQVTVSS	low polyreactivity
QVQLVESGGGLVQAGGSLRLSCAASGSTFYINAMGWYRQAPGKERVLVAAISWSGGSTYYADSVKGRFTISRDNAKNTVYLQMNSLKPEDTAVYYCAADWYLGWSLDYDYWGQGTQVTVSS	low polyreactivity
QVQLVESGGGLVQAGGSLRLSCAASGSTFYIYAMGWYRQAPGKERELVAAIDWNDGSTYYADSVKARFTISRDNAKNTVYLQMNSLKPEDTAVYYCAAAIYIYRGGTYDYWGQGTQVTVSS	high polyreactivity
QVQLVESGGGLVQAGGSLRLSCAASGSTFYIYAMGWYRQAPGKERELVAAISSVGRTSYADSVKGRFTISRDNAKNTVYLQMNSLKPEDTAVYYCAADKVDDSSYVPRTVFRYESDYWGQGTQVTVSS	low polyreactivity
QVQLVESGGGLVQAGGSLRLSCAASGSTFYIYAMGWYRQAPGKERELVAAITSRGTITSYADSVKGRFTISRDNAKNTVYLQMNSLKPEDTAVYYCAADYWQDGIAYWYDYWGQGTQVTVSS	low polyreactivity
QVQLVESGGGLVQAGGSLRLSCAASGSTFYIYAMGWYRQAPGKERELVAAITWRGGGTYYADSVKGRFTISRDNAKNTVYLQMNSLKPEDTAVYYCNADYPRSHYQYPYNYWGQGTQVTVSS	high polyreactivity
QVQLVESGGGLVQAGGSLRLSCAASGSTFYIYAMGWYRQAPGKERELVARISGSRGSTYYADSVKGRFTISRDNAKNTVYLQMNSLKPEDTAVYYCAADDIYKYYQYYALPSYRYDYWGQGTQVTVSS	low polyreactivity
QVQLVESGGGLVQAGGSLRLSCAASGSTFYIYGMGWYRQAPGKERELVAAISSSGGRTNYADSVKGRFTISRDNAKNTVYLQMNSLKPEDTAVYYCAARRWQGYAGWYDYWGQGTQVTVSS	high polyreactivity
QVQLVESGGGLVQAGGSLRLSCAASGSTFYIYTMGWYRQAPGKERELVATISWDGGNTYYADSVKGRFTISRDNAKNTVYLQMNSLKPEDTAVYYCARDSSIWSHGSWYDYWGQGTQVTVSS	low polyreactivity
QVQLVESGGGLVQAGGSLRLSCAASGSTFYKNAMGWYIQAPGKERELVAAISGSGGRTYYADSVKGRFTISRDTAKNTVYLQMNSLKPEDTAVYYCNAARAYYSLYYGLDYWGQGTQVTVSS	high polyreactivity
QVQLVESGGGLVQAGGSLRLSCAASGSTFYKYAMGWYRPAPGKERELVATINISGGSTSYADSVKGRFTISRDNAKNTVYLQMNSLKPQDTAVYYSNADAFYLGHDYWGQGTEVTVSS	high polyreactivity
QVQLVESGGGLVQAGGSLRLSCAASGSTFYKYAMGWYRQAPGKERELVAAISASGGSTYYADSVKVRFTISRDNAKNTVYLQMNSLNPEDTAVYYCAKASAYSAYADHDYYWGQGTQVTVSS	high polyreactivity
QVQLVESGGGLVQAGGSLRLSCAASGSTFYLNALGGYRQAPGKEREFVAAIDTGTGTYYADSVKGRFTISRDNAKNTVYLQMNRLKPEDTAVYYCAKDDLLVVRNVWFDYWGQGTQVTVSS	low polyreactivity
QVQLVESGGGLVQAGGSLRLSCAASGSTFYLNAMGWYRQAPGKERELVAAINSGDSTNYADSVKGRFTISRDNAKNSVYLQMNSLKPEDNAVYYCARDRYPSEGDYWGQGTQVTVSS	low polyreactivity
